Laboratory results published in PMC6614819 (Nucleic Acids Research, 2019).

Assays:
Assay in all cases: SEC
TmTsaD K166A = TmTsaD K166A (Thermotoga maritima, UniProt Q9WXZ2 1-327, K166A)
TmTsaD K213A = TmTsaD K213A (Thermotoga maritima, UniProt Q9WXZ2 1-327, K213A)
TmTsaD S134A = TmTsaD S134A (Thermotoga maritima, UniProt Q9WXZ2 1-327, S134A)
TmTsaD D165A = TmTsaD D165A (Thermotoga maritima, UniProt Q9WXZ2 1-327, D165A)
TmTsaD D182A = TmTsaD D182A (Thermotoga maritima, UniProt Q9WXZ2 1-327, D182A)
[1] = biological target: T. maritima TsaD (TmTsaD), wild type (Thermotoga maritima, UniProt Q9WXZ2 1-327)

Measured: binding result

TmTsaD K213A, sequence (Q9WXZ2 whole entry K213A): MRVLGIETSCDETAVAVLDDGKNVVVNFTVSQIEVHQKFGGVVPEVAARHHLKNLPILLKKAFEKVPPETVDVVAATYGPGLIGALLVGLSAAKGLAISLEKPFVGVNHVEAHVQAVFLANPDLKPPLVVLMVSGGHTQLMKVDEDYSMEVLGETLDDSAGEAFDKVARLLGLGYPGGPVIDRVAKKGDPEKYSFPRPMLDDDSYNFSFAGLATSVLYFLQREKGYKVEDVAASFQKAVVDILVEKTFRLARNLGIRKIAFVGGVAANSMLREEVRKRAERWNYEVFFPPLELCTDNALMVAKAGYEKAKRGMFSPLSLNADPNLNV
T. maritima TsaD (TmTsaD), wild type, sequence (Q9WXZ2 whole entry): as the sequence (Q9WXZ2 whole entry K213A) above, with A213K counted along it
TmTsaD D182A, sequence (Q9WXZ2 whole entry D182A): as the sequence (Q9WXZ2 whole entry K213A) above, with D182A, A213K counted along it
TmTsaD D165A, sequence (Q9WXZ2 whole entry D165A): as the sequence (Q9WXZ2 whole entry K213A) above, with D165A, A213K counted along it
TmTsaD S134A, sequence (Q9WXZ2 whole entry S134A): as the sequence (Q9WXZ2 whole entry K213A) above, with S134A, A213K counted along it
TmTsaD K166A, sequence (Q9WXZ2 whole entry K166A): as the sequence (Q9WXZ2 whole entry K213A) above, with K166A, A213K counted along it

B1: T. maritima TsaB (TmTsaB), wild type (natural protein, Thermotoga maritima)
chain: MNVLALDTSQRIRIGLRKGEDLFEISYTGEKKHAEILPVVVKKLLDELDLKVKDLDVVGVGIGPGGLTGLRVGIATVVGLVSPYDIPVAPLNSFEMTAKSCPADGVVLVARRARKGYHYCAVYLKDKGLNPLKEPSVVSDEELEEITKEFSPKIVLKDDLLISPAVLVEESERLFREKKTIHYYEIEPLYLQKSIAELNWEKKKRG
not listed: [1]
binds: all other assays above

B2: TmTsaB deletion mutant lacking the C-terminal helix and tail Leu189-Gly206 (domain or fragment, Thermotoga maritima, UniProt Q9WZX7 1-188, looked up)
chain: MNVLALDTSQRIRIGLRKGEDLFEISYTGEKKHAEILPVVVKKLLDELDLKVKDLDVVGVGIGPGGLTGLRVGIATVVGLVSPYDIPVAPLNSFEMTAKSCPADGVVLVARRARKGYHYCAVYLKDKGLNPLKEPSVVSDEELEEITKEFSPKIVLKDDLLISPAVLVEESERLFREKKTIHYYEIEP
binds: [1]
